Test results reported in article PMC3399532 (Prion, 2012).

Target: truncated MoPrP(89–230) (mouse, UniProt P04925 89-230)
Assay: ELISA

B1: mouse (Mo) Dpl (26–155) (domain or fragment)
chain: ARGIKHRFKWNRKVLPSSGGQITEARVAENRPGAFIKQGRKLDIDFGAEGNRYYAANYWQFPDGIYYEGCSEANVTKEMLVTSCVNATQAANQAEFSREKQDSKLHQRVLWRLIKEICSAKHCDFWLERG
binding result: binds
